Laboratory results from the supplement of paper PMC5998384.

Legend:
HeLa Kyoto [1] = test: thermal stability score vs G1/S (z-score of summed log2 fold changes over temperatures); higher = more thermally stable than in G1/S
HeLa Kyoto [2] = test: solubility change mitosis vs G1/S (difference of NP-40 vs SDS log2 ratios) (log2 ratio difference); higher = more soluble in mitosis
HeLa Kyoto [3] = test: solubility in G1/S (NP-40 vs SDS abundance) (log2 ratio); higher = more soluble; details: cell cycle stage: G1/S
HeLa Kyoto [4] = test: melting temperature (median over replicates), in situ; higher = more thermally stable
[5] = cell cycle stage: early G1 (4.5 h after nocodazole release)
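For melting temperature (median over replicates), in situ in this document: HeLa Kyoto cells synchronized by double thymidine or nocodazole block, proteins quantified by TMT10plex mass spectrometry, three independent biological replicates.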
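For solubility change mitosis vs G1/S (difference of NP-40 vs SDS log2 ratios) in this document: synchronized HeLa Kyoto cells (double thymidine block for G1/S, nocodazole release for mitosis), protein amounts in NP-40 versus SDS lysates quantified by mass spectrometry, three biological replicates.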
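For solubility in G1/S (NP-40 vs SDS abundance) in this document: HeLa Kyoto cells arrested at G1/S by double thymidine block, proteins quantified by TMT10plex mass spectrometry in mild NP-40 versus SDS extracts, three biological replicates.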
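For thermal stability score vs G1/S (z-score of summed log2 fold changes over temperatures) in this document: synchronized HeLa Kyoto cells, proteins quantified by TMT10plex mass spectrometry, three biological replicates, mitosis taken 0.5 h after nocodazole release, G1/S directly after double thymidine block.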

In the case of “MESSPFNRRQWTSLSLRVTAKELSLVNKNKSSAIVEIFSKYQKAAEETNMEKKRSNTENLSQHFRKGTLTVLKKKWENPGLGAESHTDSLRNSSTEIRHRADHPPAEVTSHAASGAKADQEEQIHPRSRLRSPPEALVQGRYPHIKDGEDLKDHSTESKKMENCLGESRHEVEKSEISENTDASGKIEKYNVPLNRLKMMFEKGEPTQTKILRAQSRSASGRKISENSYSLDDLEIGPGQLSSSTFDSEKNESRRNLELPRLSETSIKDRMAKYQAAVSKQSSSTNYTNELKASGGEIKIHKMEQKENVPPGPEVCITHQEGEKISANENSLAVRSTPAEDDSRDSQVKSEVQQPVHPKPLSPDSRASSLSESSPPKAMKKFQAPARETCVECQKTVYPMERLLANQQVFHISCFRCSYCNNKLSLGTYASLHGRIYCKPHFNQLFKSKGNYDEGFGHRPHKDLWASKNENEEILERPAQLANARETPHSPGVEDAPIAKVGVLAASMEAKASSQQEKEDKPAETKKLRIAWPPPTELGSSGSALEEGIKMSKPKWPPEDEISKPEVPEDVDLDLKKLRRSSSLKERSRPFTVAASFQSTSVKSPKTVSPPIRKGWSMSEQSEESVGGRVAERKQVENAKASKKNGNVGKTTWQNKESKGETGKRSKEGHSLEMENENLVENGADSDEDDNSFLKQQSPQEPKSLNWSSFVDNTFAEEFTTQNQKSQDVELWEGEVVKELSVEEQIKRNRYYDEDEDEE [LIMA1]”, the thermal stability score (HeLa Kyoto [1]; [5]) was -0.923, the thermal stability score (HeLa Kyoto [1]; cell cycle stage: mitosis) was -3.34 and the “solubility change mitosis (log2)” value (HeLa Kyoto [2]) was 0.392. For the same sequence, the “solubility in G1/S (log2)” value (HeLa Kyoto [3]) was -1.45, the melting temperature (HeLa Kyoto [4]; cell cycle stage: G1/S) was 57.9 °C and the melting temperature (HeLa Kyoto [4]; cell cycle stage: mitosis) was 54.3 °C.
In the case of “MESSSSSNSYFSVGPTSPSAVVLLYSKELKKWDEFEDILEERRHVSDLKFAMKCYTPLVYKGITPCKPIDIKCSVLNSEEIHYVIKQLSKESLQSVDVLREEVSEILDEMSHKLRLGAIRFCAFTLSKVFKQIFSKVCVNEEGIQKLQRAIQEHPVVLLPSHRSYIDFLMLSFLLYNYDLPVPVIAAGMDFLGMKMVGELLRMSGAFFMRRTFGGNKLYWAVFSEYVKTMLRNGYAPVEFFLEGTRSRSAKTLTPKFGLLNIVMEPFFKREVFDTYLVPISISYDKILEETLYVYELLGVPKPKESTTGLLKARKILSENFGSIHVYFGDPVSLRSLAAGRMSRSSYNLVPRYIPQKQSEDMHAFVTEVAYKMELLQIENMVLSPWTLIVAVLLQNRPSMDFDALVEKTLWLKGLTQAFGGFLIWPDNKPAEEVVPASILLHSNIASLVKDQVILKVDSGDSEVVDGLMLQHITLLMCSAYRNQLLNIFVRPSLVAVALQMTPGFRKEDVYSCFRFLRDVFADEFIFLPGNTLKDFEEGCYLLCKSEAIQVTTKDILVTEKGNTVLEFLVGLFKPFVESYQIICKYLLSEEEDHFSEEQYLAAVRKFTSQLLDQGTSQCYDVLSSDVQKNALAACVRLGVVEKKKINNNCIFNVNEPATTKLEEMLGCKTPIGKPATAKL [GNPAT]”, the thermal stability score (HeLa Kyoto [1]; [5]) was -0.31, the thermal stability score (HeLa Kyoto [1]; cell cycle stage: mitosis) was -0.298 and the “solubility change mitosis (log2)” value (HeLa Kyoto [2]) was -0.163. The “solubility in G1/S (log2)” value (HeLa Kyoto [3]) was -0.227, the melting temperature (HeLa Kyoto [4]; cell cycle stage: G1/S) was 53.4 °C and the melting temperature (HeLa Kyoto [4]; cell cycle stage: mitosis) was 53.7 °C.
In the case of “METGAAELYDQALLGILQHVGNVQDFLRVLFGFLYRKTDFYRLLRHPSDRMGFPPGAAQALVLQVFKTFDHMARQDDEKRRQELEEKIRRKEEEEAKTVSAAAAEKEPVPVPVQEIEIDSTTELDGHQEVEKVQPPGPVKEMAHGSQEAEAPGAVAGAAEVPREPPILPRIQEQFQKNPDSYNGAVRENYTWSQDYTDLEVRVPVPKHVVKGKQVSVALSSSSIRVAMLEENGERVLMEGKLTHKINTESSLWSLEPGKCVLVNLSKVGEYWWNAILEGEEPIDIDKINKERSMATVDEEEQAVLDRLTFDYHQKLQGKPQSHELKVHEMLKKGWDAEGSPFRGQRFDPAMFNISPGAVQF [NUDCD3]”, the thermal stability score (HeLa Kyoto [1]; [5]) was 0.442, the thermal stability score (HeLa Kyoto [1]; cell cycle stage: mitosis) was 0.3 and the “solubility change mitosis (log2)” value (HeLa Kyoto [2]) was -0.097. For the same sequence, the “solubility in G1/S (log2)” value (HeLa Kyoto [3]) was 0.212, the melting temperature (HeLa Kyoto [4]; cell cycle stage: G1/S) was 51 °C and the melting temperature (HeLa Kyoto [4]; cell cycle stage: mitosis) was 50.9 °C.
